Measured values as given in patent publication US20050013808A1, “Nitroreductase enzymes” (priority 2001, published 2005).
Numbering of substitutions follows the chain as printed. Numbers in names are those of the source.

B1: F124N (protein)
chain: MDIISVALKRHSTKAFDASKKLTPEQAEQIKTLLQYSPSSTNSQPWHFIVASTEEGKARVAKSAAGNYVFNERKMLDASHVVVFCAKTAMDDVWLKLVVDQEDADGRFATPEAKAANDKGRKFNADMHRKDLHDDAEWMAKQVYLNVGNFLLGVAALGLDAVPIEGFDAAILDAEFGLKEKGYTSLVVVPVGHHSVEDFNATLPKSRLPQNITLTEV
B2: N71S F124K: NTR double mutant, asparagine 71 to serine combined with phenylalanine 124 to lysine (protein)
chain: B1 chain with N71S, N124K
B3: F124H: NTR mutant, phenylalanine 124 to histidine (protein)
chain: B1 chain with N124H
B4: T41L: NTR mutant, threonine 41 to leucine (protein)
chain: B1 chain with T41L, N124F
B5: Y68G: NTR mutant, tyrosine 68 to glycine (protein)
chain: B1 chain with Y68G, N124F
B6: F124K: NTR mutant, phenylalanine 124 to lysine (protein)
chain: B1 chain with N124K
B7: Wild type: wild-type E. coli nitroreductase (NTR) encoded by the NfsB gene, SEQ ID NO:1 (protein, listed as Escherichia coli)
chain: B1 chain with N124F

Key:
[1] = test system: UT5600 cells (NTR−) lysogens; assay: Survival curve (colony count) IC50 of CB1954 in NTR-expressing lysogens; type: cell-based, E. coli; settings: concentration of CB1954 giving 50% reduction in colony number after 36h growth; lysogen expressing the named NTR
Protocol: To quantify the improvement in NTR activity in the clones in a less subjective way, a few clones were selected for further study by determining their survival curves. The lysogens were grown overnight in LB +kanamycin and diluted to approximately 1 cell per μl based on the OD. In duplicate, 100 μl diluted cells were plated into Tris-buffered LB plates containing kanamycin, IPTG and 0-400 μM CB1954. After 36h growth the number of colonies on each plate were counted and expressed as a percentage of the number present on the plates with no CB1954. Survival curves showing % survival versus concentration of CB 1954 were plotted (see examples in FIG. 7) and the IC50 determined as the concentration of CB 1954 which kills gives a 50% reduction in colony number (Table 3 and FIG. 8). A few clones containing mutations resulting in an enhanced sensitivity to CB 1954 were selected for further study.

HeLa cells = assay: CB1954 sensitisation of HeLa cells after adenoviral NTR expression (MTS viability); type: cell-based, human; settings: range of MOIs, 0-50 μM CB1954, 5 hour exposure, MTS assay
Protocol: Sensitisation of HeLa cells to CB1954 was assayed using the following protocol. Cells were infected with NTR-expressing viruses in suspension (2 hours) at a range of MOIs prior to plating into microtitre plates (10^4 cells/well). After a 24 hour expression period, CB1954 was applied at a range of concentrations (0-50 μM) and after a 5 hour exposure to the prodrug, cell viability was assessed using the Promega MTS cell substrate killing assay (2-3 hour incubation before plate reading at OD450 nm). […] Adenovirus titreing by plaque formation on helper cells is however an error-prone process. To correct for this, experiments were performed with multiple independent titred preparations of each virus.
The titres of these mixes were assumed to be the means of the respective experimentally determined titres. For western blot analysis of NTR expression for normalisation purposes, whole cell extracts were resolved by SDS-PAGE on an 11% separation gel and blotted onto a nitrocellulose membrane. NTR was detected using a sheep anti-NTR serum (1:1000 diluted), donkey anti-sheep IgG labelled with HRP (horseradish peroxidase) and SuperSignal West Pico Chemiluminescence substrate (Pierce), analysed with an Alpha Innotech Imager Model #2.3.1. The relative loading of each well was determined by Coomassie blue staining of the gel post transfer.

[2] = test system: UT5600 cells (NTR−) lysogens; assay: Replica-plate screening of mutant NTR-expressing lysogens on increasing CB1954 (growth score); type: cell-based, E. coli; design: key to Score: 0: Good growth on all concentrations of CB 1954 = vector; Good growth on 100 and 200, faint on 300, ring of growth on 400 μM; Good growth on 100 and 200, ring growth on 300, none or very faint on 400 μM; Good growth on 100, faint to good on 200, none or very faint on 300 and 400 μM; 4: Good growth on 100 μM, none to ring growth on 200 μM = wild type; Good growth on 50 μM, ring on 100 μM, none on 200, 300 or 400 μM; 6: Faint growth on 50 μM, ring on 100 μM; 7: Good growth on 50 μM, none on 100 μM; 8: Ring growth on 50 μM, none on 100 μM; 9: None or very faint growth on 50 μM, none on 100 μM; 10: None or ring growth on 35 μM; settings: for Score: growth of lysogens on agar with kanamycin, IPTG and 0-400 μM CB1954, wild type = 4, higher = more sensitive
Protocol: The ligation mix was packaged (Stratagene) into lambda bacteriophage particles that were used to infect UT5600 cells (NTR ^−). As a control wild type NTR was also cloned into this vector (JG16C2). Kanamycin resistant lysogens were selected on agar plates ([…] kanamycin) then individually grown overnight in a well of a 96-well plate in LB+Kanamycin. The clones were replica plated on to a series of plates containing Tris-buffered (50 mM, pH 7.5) LB agar with kanamycin, IPTG (0.1 mM) and CB1954 at a concentration of 0, 25, 35, 50, 100, 200, 300 or 400 μM (see FIG. 3). […]

[3] = Steady state kinetics of purified NTR, variable substrate NADH; type: biochemical; settings: fixed substrate nitrofurazone; for Km: 10 mM Tris HCl pH 7.0, 25° C., 4% DMSO
Protocol: (§1) Wild type NTR and selected mutants were purified as described by Lovering et al., 2001. Steady state kinetic studies were carried out by monitoring the disappearance of nitrofurazone ( ? =12,960, Zenno, et al., 1994) and nitrofurantoin ( ? =12,020, McOsker, et al., 1992) at 420 nm or the disappearance of reduced benzoquinone ( ? =18,5000), 2-nitrofuran ( ? =10,250, McOsker, et al., 1992), 2-nitrobenzamide ( ? =9,750, McOsker, et al., 1992) and 4 nitrobenzamide ( ? =9,720, McOsker, et al., 1992) at 300 nm. The formation of the 4 hydroxylamine product of CB1954 reduction was monitored at 420 nm ( ? =7900, Richard Knox, personal communication).
(§2) All reactions were performed in quartz cuvettes with either a 0.1-, 0.5-, or 1-cm pathlength. In all cases the reaction was initiated by the addition of a small amount of cold enzyme solution to the reaction mix. Assays were performed in 10 mM Tris HCL pH 7.0. The temperature of each reaction was maintained at 25° C. by means of a circulating water bath. All substrates examined were dissolved in DMSO, with the final concentration of organic solvent not exceeding 4% (v/v), concentrations>5% (v/v) give definable enzyme inhibition. In all assay the final DMSO concentration was at 4%. All steady state data were collected in an aerobic environment. Kinetic data were collected at concentration ranges extending from 0.1 of Km to the maximum possible concentration permitted by substrate solubility or optical absorbance. In all cases maximum substrate concentrations exceeded 5×Km. All data was analysed using the commercial package Sigma Plot™ and fit with non-linear regression to a rectangular hyperbola of the form: y=ax/b+x

[4] = Steady state kinetics of purified NTR, variable substrate nitrofurazone; type: biochemical; settings: fixed substrate NADH
Protocol: as §1, §2

[5] = Steady state kinetics of purified NTR, variable substrate CB1954; type: biochemical; settings: for kinetic parameters compared with wild type: second substrate CB1954, nucleotide NADH; for Km / kcat: variable substrate CB1954, fixed substrate NADH
Protocol: as §1, §2

[6] = nitrofurazone and nitrofurantoin as substrates; cited from earlier work

Row | Molecule | IC50 [1] | sensitisation of HeLa cells to CB1954 killing compared with WT NTR (HeLa cells) | nitroreductase activity with CB1954 compared with wild-type [2] | Score [2] | kcat [3] | Km [3] | Km [4] | kcat [4] | kinetic parameters compared with wild type [5] | Km [5] | kcat [5] | nitroreductase activity compared with wild-type [6]
1 | B1 | 21 µM | more extensive cell killing than that caused by expression of the WT enzyme | substantially greater activity with CB 1954 than the wild-type | 8-10 | – | – | – | – | – | – | – | –
2 | B2 | 16 µM | more extensive cell killing than that caused by expression of the WT enzyme | – | 9 | – | – | – | – | – | – | – | –
3 | B3 | 41 µM | – | substantially greater activity with CB 1954 than the wild-type | 7-9 | 10.3 ± 0.217 s⁻¹ | 3 ± 0.4 µM | 104 ± 10 µM | 10.7 ± 0.267 s⁻¹ | significant improvement in kcat/Km for both nucleotide and second substrate | 526 ± 10 µM | 5.93 ± 0.583 s⁻¹ | approximately double the wild-type activity
4 | B4 | 38 µM | – | – | 5-7 | 35.18 ± 0.583 s⁻¹ | 5 ± 2 µM | 79 ± 11 µM | 35.14 ± 0.612 s⁻¹ | best bimolecular rate constant vs. the second substrate | 871 ± 77 µM | 16.2 ± 1.37 s⁻¹ | –
5 | B5 | 43 µM | – | – | 7 | 54.77 ± 0.55 s⁻¹ | 22 ± 1 µM | 699 ± 24 µM | 59.02 ± 0.4 s⁻¹ | large improvement in catalytic activity vs. second substrate but not in kcat/Km | 1840 ± 44 µM | 11.5 ± 0.9 s⁻¹ | –
6 | B6 | 23 µM | – | substantially greater activity with CB 1954 than the wild-type | 8-10 | 12 ± 0.15 s⁻¹ | 1 ± 0.2 µM | 53 ± 5 µM | 12.6 ± 0.25 s⁻¹ | significant improvement in kcat/Km for both nucleotide and second substrate | 371 ± 12 µM | 5.72 ± 0.717 s⁻¹ | –
7 | B7 | 118 µM | – | – | 4 | 11 ± 0.383 s⁻¹ | 7 ± 1 µM | 157 ± 4 µM | 11.4 ± 0.05 s⁻¹ | – | 852 ± 8 µM | 5.7 ± 0.417 s⁻¹ | –
